Measurements taken from the supplement of paper PMC11865577.

Assays:
Experiment in all cases: pull-down binding Z-score (relative to library population); higher = stronger binding
[1] = system: G-clamp-N3 (biotin conjugate); conditions: RNA library: Library-1 (pre-miRNA loops + repeats)
How it was run: (§1)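 Streptavidin beads with 100 pmol of biotin-conjugated small molecule were incubated for 60 min at 25 °C with 1 μg of heat-folded Cy5- or Cy3-end-labelled RNA library in phosphate/NaCl/KCl buffer. Bound RNA was eluted in hot SDS after three washes and hybridised to a DNA barcode microarray at 55.5 °C for 20 h. Each binding score is a library-referenced Z-score, computed after beads-only subtraction and a trimmed mean of barcoded replicate probes.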

[2] = system: TO-3-N3 (biotin conjugate); conditions: RNA library: Library-2
How it was run: as §1

[3] = system: TO-3-N3-2 (biotin conjugate); conditions: RNA library: Library-2
How it was run: as §1

[4] = system: TO-N3 (biotin conjugate); conditions: RNA library: Library-2
How it was run: as §1

[5] = system: TO-N3-2 (biotin conjugate); conditions: RNA library: Library-2
How it was run: as §1

| Sequence | pull-down binding Z-score [1] | pull-down binding Z-score [2] | pull-down binding Z-score [3] | pull-down binding Z-score [4] | pull-down binding Z-score [5] |
| --- | --- | --- | --- | --- | --- |
| CAUGUGGUGGAACGAUGGAAACGGAACAUG [hsa-mir-218-2] | 1.07 | -0.477 | -0.027 | 0.162 | 1 |
| CCUGUUUGAAUAUUUCACCAGAAACAGG [hsa-mir-4433b] | 1.2 | -0.311 | -0.044 | -0.402 | -0.74 |
| UUGUUACAUUUUAGGAUUGCUUGCCCCUUGCUCCAAUGGUGCAGGCAGAAGAAAUGCAAACAA [hsa-mir-3973] | -0.551 | -0.0993 | -0.0806 | 0.135 | 1.25 |
| AUAUAGAUAUCAGCUACCUAUAU [hsa-mir-3144] | -0.95 | -0.694 | -0.329 | -1.06 | -1.38 |
| ACCCGGGUGGUGGAGGUUGCAGUGAGCCAAGAUUGCGCCACUGCACUCCAGCCUGGGC [hsa-mir-1273a] | -0.139 | 1.06 | 0.442 | 1.94 | 1.66 |
| AGCUGUUGAACUGGGAACCUGCU [hsa-mir-31] | 0.781 | -0.162 | -0.00735 | 0.368 | 0.794 |
| GGGCGGAACACCCAGCCCC [hsa-mir-4417] | -1.31 | -0.4 | -0.246 | -0.21 | 0.785 |
| CAGCCAUGACCUGACCUUCUGUCUG [hsa-mir-4677] | -0.499 | -0.163 | -0.165 | -0.0686 | 0.513 |
| AUAGUUUAGAAUUACAUCAAGGGAGAUAACUGU [hsa-let-7a-2] | 0.705 | -0.34 | 0.285 | -0.695 | -0.163 |
| CGUAUGUGUAUAUAAAUGUAUACG [hsa-mir-1277] | 0.912 | -0.965 | -0.547 | -1.29 | -1.36 |
| GGUUGCUGGAGGUCAGC [hsa-mir-6871] | 0.0274 | 0.155 | 0.233 | 0.489 | 0.785 |
| UGUUCACUUUCUAUAUGAUGAAUA [hsa-mir-656] | -0.48 | -1.09 | -0.523 | -1.4 | -1.7 |
| GACUUUUCUAUUUUCCAAAAGC [hsa-mir-423] | -0.657 | -0.475 | -0.142 | -0.568 | -0.573 |
| GGUUUCCUUCGGGGCAGGUGGGGACUGCUCCUUUGGGAGGAAGGAGGAGGCC [hsa-mir-4453] | 1.28 | 2.21 | 1.96 | 2.34 | 2.11 |
| CUGUGAGGACAUCCAGGGUCACAG [hsa-mir-125a] | 3.76 | 0.423 | 0.169 | 0.903 | 0.969 |
| CUCUCCUGACCAGCUGAGCUGGAGGAGAG [hsa-mir-3160-2] | 1.35 | -0.0412 | -0.397 | -0.48 | -1.08 |
| AAGCCCUACGAGAAACUGGGGUUUCUGGA [hsa-mir-765] | -1.01 | 0.529 | 0.277 | 0.686 | 0.503 |
| GAGACGCUUUUAAAGUCUC [hsa-mir-3926-2] | 0.131 | -0.631 | -0.552 | -0.855 | -1.22 |
| AUCUGCAGGGCAUUGUGCUAACAGGU [hsa-mir-4681] | 1.35 | 0.532 | 0.211 | 0.644 | 0.0756 |

| Sequence | pull-down binding Z-score [1] | pull-down binding Z-score [2] | pull-down binding Z-score [3] | pull-down binding Z-score [4] | pull-down binding Z-score [5] |
| --- | --- | --- | --- | --- | --- |
| GAACCCAGGGAGCCAGACUGCCUGGGUUC [hsa-mir-607] | -0.0852 | 1.05 | -0.182 | 0.843 | -0.0198 |
| UGGGUCAAGGAGCCCA [hsa-mir-4530] | 0.476 | -0.163 | -0.211 | -0.3 | -0.3 |
| UGCCAUACUUUUAACGGCA [hsa-mir-548i-4] | -0.464 | -0.727 | -0.272 | -1.09 | -1.06 |
| UGCUUCCACAUAGCAGCA [hsa-mir-4752] | -0.248 | -0.423 | -0.24 | -0.62 | -0.597 |
| GGCAGAAAUGUC [hsa-mir-8053] | 0.69 | -0.653 | -0.375 | -1.13 | -1.13 |
| GUAAGAGAGACUCUCGCUUCCUGC [hsa-mir-874] | -1 | 0.0696 | -0.291 | 0.169 | 0.462 |
| CCGGGUGCCCACAAGACUGUG [hsa-mir-3138] | -0.253 | 0.49 | 0.469 | 1.01 | 2.06 |
| CUUAGAUUUUUCCAUCUUUGUAUCUAG [hsa-mir-29b-2] | 0.453 | -0.805 | -0.236 | -0.995 | -0.98 |
| CUUUGUCUGACUACAAUAUUCAAAAG [hsa-mir-4426] | -1.96 | 0.0486 | 0.0275 | -0.0832 | -0.569 |
| AAAUUGCAGACACUAGGACCAUGUCUUGGUUUUUGCAAUAAUG [hsa-mir-1248] | 0.0385 | -0.228 | -0.133 | -0.189 | -0.641 |
| CAUUUGUGGCAUGGACCAUUUGUG [hsa-mir-4504] | -0.183 | -0.874 | -0.518 | -0.959 | -0.813 |
| CGUUGAGUGGGCACCCGAGAAGCCAUCG [hsa-mir-425] | -0.628 | 0.0191 | 0.25 | 0.583 | 1.51 |
| GUUGGGAUUGAGUUUUGAACUCGGC [hsa-mir-196a-2] | 0.29 | 0.00707 | -0.0929 | -0.0442 | -0.0161 |
| CAGUAAGCCUUGACUUAUGGCUAAAUGCUUC [hsa-mir-4273] | -1.02 | -0.111 | 0.0166 | 0.0209 | 0.273 |
| GGUUGUUAGAUAGACAACU [hsa-mir-4510] | 0.718 | 0.632 | 0.19 | 0.328 | -0.496 |
| UUCUUUGAGGAUCUGGCCUAAAGAG [hsa-mir-202] | -0.443 | 1.14 | 0.362 | 1.27 | 0.811 |
| GCUCUGGGGAUUUGGUCUCACAGC [hsa-mir-3940] | 0.507 | -0.54 | -0.38 | -0.497 | -0.339 |
| UUUCUAUAACUGGAUGAAA [hsa-mir-498] | -0.372 | -0.457 | -0.431 | -0.488 | -0.778 |
